Test results as given in IntAct's records for PubMed 23940353.

B1: Cytohesin-3 (Homo sapiens), O43739-2 (parent)
chain: MDEDGGGEGGGVPEDLSLEEREELLDIRRRKKELIDDIERLKYEIAEVMTEIDNLTSVEESKTTQRNKQIAMGRKKFNMDPKKGIQFLIENDLLQSSPEDVAQFLYKGEGLNKTVIGDYLGERDEFNIKVLQAFVELHEFADLNLVQALRQFLWSFRLPGEAQKIDRMMEAFASRYCLCNPGVFQSTDTCYVLSFAIIMLNTSLHNHNVRDKPTAERFIAMNRGINEGGDLPEELLRNLYESIKNEPFKIPEDDGNDLTHTFFNPDREGWLLKLGGRVKTWKRRWFILTDNCLYYFEYTTDKEPRGIIPLENLSIREVEDPRKPNCFELYNPSHKGQVIKACKTEADGRVVEGNHVVYRISAPSPEEKEEWMKSIKASISRDPFYDMLATRKRRIANKK
B2: ADP-ribosylation factor 6 (Homo sapiens), P62330 (parent)
chain: MGKVLSKIFGNKEMRILMLGLDAAGKTTILYKLKLGQSVTTIPTVGFNVETVTYKNVKFNVWDVGGQDKIRPLWRHYYTGTQGLIFVVDCADRDRIDEARQELHRIINDREMRDAIILIFANKQDLPDAMKPHEIQEKLGLTRIRDRNWYVQPSCATSGDGLYEGLTWLTSNYKS

Experiments:
[1] = variants of: B1; conditions: with arf6_human ARF6, P62330
[2] = variants of: B2; conditions: with CYTH3, O43739-2
[3] = variants of: B2; conditions: with CYTH1, Q15438-2
[4] = variants of: B2; conditions: with CYTH2, Q99418-2
Chain of CYTH2, Q99418-2 (Q99418 other isoform, or with tags, fused parts or gaps): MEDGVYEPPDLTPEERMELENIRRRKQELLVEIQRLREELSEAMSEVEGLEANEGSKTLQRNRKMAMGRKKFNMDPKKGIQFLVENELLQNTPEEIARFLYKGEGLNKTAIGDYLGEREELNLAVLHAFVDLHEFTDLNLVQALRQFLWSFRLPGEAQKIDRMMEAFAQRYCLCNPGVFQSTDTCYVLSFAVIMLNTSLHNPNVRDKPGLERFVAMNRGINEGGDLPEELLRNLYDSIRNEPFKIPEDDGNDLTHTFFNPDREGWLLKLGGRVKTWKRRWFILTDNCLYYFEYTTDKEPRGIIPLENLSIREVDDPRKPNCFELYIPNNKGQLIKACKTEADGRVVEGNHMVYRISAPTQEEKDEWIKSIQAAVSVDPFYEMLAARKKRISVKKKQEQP

Chain of CYTH1, Q15438-2 (Q15438 other isoform, or with tags, fused parts or gaps): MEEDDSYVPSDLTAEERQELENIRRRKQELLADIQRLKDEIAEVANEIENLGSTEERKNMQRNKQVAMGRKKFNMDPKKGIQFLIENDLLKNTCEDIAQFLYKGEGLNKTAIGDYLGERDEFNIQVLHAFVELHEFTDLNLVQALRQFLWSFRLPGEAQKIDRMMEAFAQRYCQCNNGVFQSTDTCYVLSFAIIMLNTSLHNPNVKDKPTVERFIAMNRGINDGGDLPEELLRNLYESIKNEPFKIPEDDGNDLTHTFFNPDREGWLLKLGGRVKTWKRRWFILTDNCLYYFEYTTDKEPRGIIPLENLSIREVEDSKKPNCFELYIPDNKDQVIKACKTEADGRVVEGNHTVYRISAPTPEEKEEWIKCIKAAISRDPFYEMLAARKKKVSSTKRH

Row | effect of a mutation on the interaction [1] | effect of a mutation on the interaction [2] | effect of a mutation on the interaction [3] | effect of a mutation on the interaction [4] | Variant
1 | decreasing interaction strength | – | – | – | L388A
2 | decreasing interaction strength | – | – | – | K392A
3 | – | with no effect | with no effect | with no effect | Q67L
